# Measurements: US20250320252A1 (Scripps Research, published 2025)
# Bridge positions count the residues as written; N and C are the ends. Square brackets hold non-standard residues; d marks the D form. Ends that are not written are not given here. C20L5A = not defined here; L5A(S) = not defined here; Aib = CC(C)(N)C(=O)O
# Columns and labels:
# Assay in all cases: cell-based or functional assay
# human GIP receptor [1] = molecular target: T1, human GIP receptor (human, UniProt P48546 22-466)
# T1 sequence (looked up): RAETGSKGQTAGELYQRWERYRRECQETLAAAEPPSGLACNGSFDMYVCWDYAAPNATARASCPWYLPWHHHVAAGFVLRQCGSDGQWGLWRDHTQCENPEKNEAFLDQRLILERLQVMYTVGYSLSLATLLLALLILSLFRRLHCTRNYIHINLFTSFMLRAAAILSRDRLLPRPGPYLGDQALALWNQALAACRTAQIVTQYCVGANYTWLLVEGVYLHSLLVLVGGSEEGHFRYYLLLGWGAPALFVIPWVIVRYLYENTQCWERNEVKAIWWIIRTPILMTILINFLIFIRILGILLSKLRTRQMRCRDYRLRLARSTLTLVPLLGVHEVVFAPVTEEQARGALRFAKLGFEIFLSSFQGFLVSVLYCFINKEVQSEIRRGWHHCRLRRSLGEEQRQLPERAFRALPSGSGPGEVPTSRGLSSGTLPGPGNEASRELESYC
# mouse GIPR = molecular target: T2, mouse GIPR (mouse, UniProt Q0P543 19-460)
# T2 sequence (looked up): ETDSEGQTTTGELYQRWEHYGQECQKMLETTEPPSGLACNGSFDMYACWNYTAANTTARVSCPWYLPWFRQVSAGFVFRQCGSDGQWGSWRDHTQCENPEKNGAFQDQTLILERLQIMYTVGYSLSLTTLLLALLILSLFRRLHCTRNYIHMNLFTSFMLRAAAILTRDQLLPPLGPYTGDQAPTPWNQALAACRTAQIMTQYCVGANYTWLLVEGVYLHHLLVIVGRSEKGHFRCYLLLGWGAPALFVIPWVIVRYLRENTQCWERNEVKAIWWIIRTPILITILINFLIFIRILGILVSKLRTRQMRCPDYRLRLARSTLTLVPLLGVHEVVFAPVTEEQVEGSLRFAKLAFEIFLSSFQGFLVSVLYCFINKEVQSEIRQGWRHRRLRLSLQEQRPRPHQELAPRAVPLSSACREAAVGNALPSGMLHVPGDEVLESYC
# dog GLP1R = molecular target: T3, dog GLP1R (dog, UniProt A0A8I3NUR9 25-464)
# T3 sequence: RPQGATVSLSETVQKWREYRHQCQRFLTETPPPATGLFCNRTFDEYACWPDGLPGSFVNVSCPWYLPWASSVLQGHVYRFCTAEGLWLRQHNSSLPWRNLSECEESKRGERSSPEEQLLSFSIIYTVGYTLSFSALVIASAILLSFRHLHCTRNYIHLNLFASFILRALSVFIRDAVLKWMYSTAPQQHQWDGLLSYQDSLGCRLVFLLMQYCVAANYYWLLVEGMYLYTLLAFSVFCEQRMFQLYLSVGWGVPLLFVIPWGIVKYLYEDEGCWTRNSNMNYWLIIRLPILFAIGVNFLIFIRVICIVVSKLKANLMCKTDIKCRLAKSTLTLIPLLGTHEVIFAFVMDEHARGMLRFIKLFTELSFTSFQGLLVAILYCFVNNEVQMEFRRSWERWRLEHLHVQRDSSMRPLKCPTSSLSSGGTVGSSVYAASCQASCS
# dog GIPR = dog GIPR (dog)
# cynomolgus monkey GLP1R = cynomolgus monkey GLP1R (cynomolgus monkey, UniProt F8V479 24-463)
# cynomolgus monkey GIPR = molecular target: T4, cynomolgus monkey GIPR (cynomolgus monkey, UniProt A0A2K5VD75 22-466)
# T4 sequence: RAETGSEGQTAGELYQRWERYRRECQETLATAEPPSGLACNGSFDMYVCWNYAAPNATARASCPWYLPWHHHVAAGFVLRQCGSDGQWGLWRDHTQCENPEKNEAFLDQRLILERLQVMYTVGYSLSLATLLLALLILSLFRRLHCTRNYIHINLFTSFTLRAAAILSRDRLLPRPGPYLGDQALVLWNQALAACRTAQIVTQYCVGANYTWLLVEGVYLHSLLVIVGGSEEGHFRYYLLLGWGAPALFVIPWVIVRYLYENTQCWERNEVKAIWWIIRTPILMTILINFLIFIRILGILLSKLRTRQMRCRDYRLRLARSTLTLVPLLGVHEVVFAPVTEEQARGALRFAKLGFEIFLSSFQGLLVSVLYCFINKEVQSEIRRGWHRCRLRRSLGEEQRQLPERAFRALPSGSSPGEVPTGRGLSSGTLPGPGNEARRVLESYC
# mouse GLP1R = molecular target: T5, mouse GLP1R (mouse, UniProt O35659 22-463)
# T5 sequence (looked up): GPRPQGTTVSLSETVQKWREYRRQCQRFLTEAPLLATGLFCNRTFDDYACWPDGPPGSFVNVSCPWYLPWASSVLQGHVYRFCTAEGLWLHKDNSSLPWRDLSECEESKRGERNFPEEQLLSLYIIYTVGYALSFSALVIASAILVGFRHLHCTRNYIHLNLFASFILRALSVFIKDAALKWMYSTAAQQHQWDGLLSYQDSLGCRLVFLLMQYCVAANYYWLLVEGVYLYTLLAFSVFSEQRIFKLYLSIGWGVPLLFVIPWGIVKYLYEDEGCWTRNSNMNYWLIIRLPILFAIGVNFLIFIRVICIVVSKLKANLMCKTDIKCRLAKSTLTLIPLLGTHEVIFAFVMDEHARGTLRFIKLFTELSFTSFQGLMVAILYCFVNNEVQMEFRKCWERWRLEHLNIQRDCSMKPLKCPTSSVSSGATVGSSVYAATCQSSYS
# human GIP receptor [2] = molecular target: T1, human GIP receptor; remark: listed apart in the source
Binder,"In Vitro Potency GIPR EC50 [nM], 10% FBS (human GIP receptor [1]) [nM]","In Vitro Potency GIPR EC50 [nM], Mouse (mouse GIPR) [nM]","In Vitro Potency GLP1R EC50 [nM], Dog (dog GLP1R) [nM]","In Vitro Potency GIPR EC50 [nM], Dog (dog GIPR) [nM]","In Vitro Potency GLP1R EC50 [nM], Cyno (cynomolgus monkey GLP1R) [nM]","In Vitro Potency GIPR EC50 [nM], Cyno (cynomolgus monkey GIPR) [nM]","In Vitro Potency GLP1R EC50 [nM], Mouse (mouse GLP1R) [nM]","EC50 of receptor-mediated cAMP synthesis, GIPR (nM), 02/19 (human GIP receptor [2]) [nM]","EC50 of receptor-mediated cAMP synthesis, GIPR (nM), 03/25 (human GIP receptor [2]) [nM]","EC50 of receptor-mediated cAMP synthesis, GIPR (nM), 03/26 (human GIP receptor [2]) [nM]","EC50 of receptor-mediated cAMP synthesis, GIPR (nM), average (human GIP receptor [2]) [nM]"
Y[Aib]EGTFTSDYSIYLDKCAA[Aib]EFVCWLIAGGPSSGAPPPS-NH2 (linker 17-24 via L5A(S); not fully specified; reading uncertain) [mCMZ371 (C(17-24)-L5A(S))],0.04,0.27,1.34,0.47,0.11,,,,,,
YAEGTFISDYSIAMDKIHQQDFVNWLLAQKGKKNDWKHNITQ-NH2 (ligand) [wild-type human GIP],,,,0.7,,0.69,,,,,
"Y[Aib]EGTFTSDYSIYLDKCAA[Aib]EFVCWLIAGGPSSGAPPPS-NH2 (linker 17-24 via C20L5A; not fully specified; reading uncertain) [mCMV268 (27I, C(17-24)-C20L5A)]",,0.26,1.48,,0.22,0.16,0.26,0.05,0.04,0.03,0.04
